# Results: publication PMC3438196
# Target: Gag MAPPIT prey (pMG2-Gag)
# Assay: MAPPIT
# Conditions: stimulation with Epo; parent: est. 38; read off a plot
row,Substance,response (fold induction)
1,Apobec3G MAPPIT bait (pCEL-Apobec3G) (from UniProt Q9HC16) YFW125-127DY,2.2

# Target: Gagpol MAPPIT prey (pMG2-Gagpol)
# Assay: MAPPIT
# Conditions: not given
row,Substance,percent of parent
1,Apobec3G-GFP MAPPIT bait (pCEL-Apobec3G-GFP) (from UniProt Q9HC16) H81L,33 % of WT
2,Apobec3G-GFP MAPPIT bait (pCEL-Apobec3G-GFP) (from UniProt Q9HC16) K79M,32 % of WT
3,Apobec3G-GFP MAPPIT bait (pCEL-Apobec3G-GFP) (from UniProt Q9HC16) K270E,67 % of WT
4,Apobec3G-GFP MAPPIT bait (pCEL-Apobec3G-GFP) (from UniProt Q9HC16) Q237K,46 % of WT
5,Apobec3G-GFP MAPPIT bait (pCEL-Apobec3G-GFP) (from UniProt Q9HC16) R30L,5 % of WT
6,Apobec3G-GFP MAPPIT bait (pCEL-Apobec3G-GFP) (from UniProt Q9HC16) R78W,6 % of WT
7,Apobec3G-GFP MAPPIT bait (pCEL-Apobec3G-GFP) (from UniProt Q9HC16) R238C,56 % of WT
8,Apobec3G-GFP MAPPIT bait (pCEL-Apobec3G-GFP) (from UniProt Q9HC16) W269G,33 % of WT
9,Apobec3G-GFP MAPPIT bait (pCEL-Apobec3G-GFP) (from UniProt Q9HC16) Y222N,6 % of WT

# Target: Gagpol MAPPIT prey (pMG2-Gagpol)
# Assay: MAPPIT
# Conditions: not given
# Remark: another data set of the same source
row,Substance,percent of parent
1,Apobec3G-GFP MAPPIT bait (pCEL-Apobec3G-GFP) (from UniProt Q9HC16) D128G,11 % of WT
2,Apobec3G-GFP MAPPIT bait (pCEL-Apobec3G-GFP) (from UniProt Q9HC16) E191V,8 % of WT
3,Apobec3G-GFP MAPPIT bait (pCEL-Apobec3G-GFP) (from UniProt Q9HC16) N20D,22 % of WT
4,Apobec3G-GFP MAPPIT bait (pCEL-Apobec3G-GFP) (from UniProt Q9HC16) R30L,5 % of WT
5,Apobec3G-GFP MAPPIT bait (pCEL-Apobec3G-GFP) (from UniProt Q9HC16) R122C,5 % of WT
6,Apobec3G-GFP MAPPIT bait (pCEL-Apobec3G-GFP) (from UniProt Q9HC16) R136S,24 % of WT
7,Apobec3G-GFP MAPPIT bait (pCEL-Apobec3G-GFP) (from UniProt Q9HC16) W94R,13 % of WT
